Reference: article doi:10.1101/2020.04.11.036434

Target: PTEN (WT), recombinant insect-cell purified (UniProt P60484)
Experiment: SPR

Row | fold decrease in affinity against P-Rex2 (WT) [fold] | Substance
1 | 4 | P-Rex2 (674-683) P-Rex1 sequence-swap mutant
2 | 6 | P-Rex2 (922-931) P-Rex1 sequence-swap mutant
3 | 7 | P-Rex2 (904-912) P-Rex1 sequence-swap mutant
